{"source": "patent US8273357B2", "about": "“Antigen-carbohydrate conjugates” (Massachusetts Institute of Technology, priority 2004, dated 2012)", "molecules": {"B1": {"name": "(OVA)-3-1: ovalbumin modified via SMCC with nonasaccharide 3-1, average of three saccharides per OVA (conjugate)", "chain": "GSIGAASMEFCFDVFKELKVHHANENIFYCPIAIMSALAMVYLGAKDSTRTQINKVVRFDKLPGFGDSIEAQCGTSVNVHSSLRDILNQITKPNDVYSFSLASRLYAEERYPILPEYLQCVKELYRGGLEPINFQTAADQARELINSWVESQTNGIIRNVLQPSSVDSQTAMVLVNAIVFKGLWEKAFKDEDTQAMPFRVTEQESKPVQMMYQIGLFRVASMASEKMKILELPFASGTMSMLVLLPDEVSGLEQLESIINFEKLTEWTSSNVMEERKIKVYLPRMKMEEKYNLTSVLMAMGITDVFSSSANLSGISSAESLKISQAVHAAHAEINEAGREVVGSAEAGVDAASVSEEFRADHPFLFCIKHIATNAVLFFGRCVSP"}}, "test_system": "OTI (CD8+) T cells in unfractionated splenocytes", "test": "Antigen presentation assay (MHC class I), unfractionated OTI splenocytes, [3H]thymidine T cell proliferation", "format": "cell-based, mouse", "protocol": "FIGS. 3A and 3B are graphs showing that nonasaccharide 3-1-promoted presentation via MHC class I pathway for presentation to CD8^+ T cells. […] Unfractionated OTI splenocytes (3×10^5/well) were incubated with graded doses of OVA±(OVA)-3-1 (50 ng mL^−1) or (OVA)-3-1±(BSA)-3-1 (10 μg mL^−1). Incubations were performed for seventy-two hours with [^3H]thymidine (1 μCi) added for the last twelve hours. FIG. 3B is a graph showing that the monosaccharide mannose 3-6 targets a different receptor than 3-1. OTII splenocytes were incubated with graded doses of monosaccharide-modified OVA±(BSA)-3-1 and T cell proliferation was measured as described for FIG. 3A. Values present the mean of triplicate measurements.\nAccessing the transporter of antigenic peptides (TAP) and thereby achieving cross-presentation of antigen by dendritic cells to MHC class I restricted CD8+ T cells led to efficient stimulation of these T cells and, in the steady state, their apoptotic deletion from the T cell repertoire^3. To determine if the receptor promoting (OVA)-3-1 uptake can process proteins through the MHC class I pathway, (OVA)-3-1 and OVA were incubated with unfractionated splenocytes isolated from OTI (CD8^+) mice. The T cells from transgenic OTI mice recognized an eight amino acid residue sequence (SIINFEKL (SEQ ID NO: 14)) derived from OVA and were therefore utilized to gauge the efficiency of DC presentation of MHC class I antigenic peptides. A moderate (10-fold) increase in the efficiency of MHC class I presentation with (OVA)-3-1 as compared to OVA alone was observed (FIG. 3A).\nPooled inguinal lymph nodes were dissociated in 10% Fetal Bovine Serum RPMI (supplemented with 2 mM L-glutamine) and either mechanically dissociated between two glass slides or, to improve the overall cell yield, incubated in the presence of collagenase (Boehringer) and EDTA for 25 minutes at 37° C./5% CO2 to dissociate DC-T cell clusters. For antigen presentation assays with whole splenocytes, isolated spleens were injected with collagenase/EDTA, gently teased apart and incubated as described above. […]"}
{"molecule": "B1", "values": [{"measurement": "direct activation of OTI T cells", "setting": "(OVA)-3-1 50 ng mL^−1 added to OVA", "value": "did not achieve this enhancement via direct activation of T cells"}, {"measurement": "increase in the efficiency of MHC class I presentation as compared to OVA alone", "setting": "OTI splenocytes", "value": 10, "unit": "fold"}, {"measurement": "presentation of antigenic peptides to CD8+ T cells", "setting": "OTI splenocytes, graded doses", "value": "enhanced presentation"}]}
